Numbering of substitutions follows the chain as printed.
T1: CHMP3 V48D, A64D (human, UniProt Q9Y3E7 1-222, V48D | A64D)
T1 sequence (looked up): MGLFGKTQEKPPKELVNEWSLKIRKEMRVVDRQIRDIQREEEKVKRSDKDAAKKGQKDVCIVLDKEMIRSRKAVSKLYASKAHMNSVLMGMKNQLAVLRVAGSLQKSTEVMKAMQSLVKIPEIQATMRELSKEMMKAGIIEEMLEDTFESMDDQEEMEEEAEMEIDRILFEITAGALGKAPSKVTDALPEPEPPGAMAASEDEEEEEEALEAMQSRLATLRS

T2: CHMP3 I168D, L169D (human, UniProt Q9Y3E7 1-222, I168D | L169D)
T2 sequence (looked up): T1 sequence (looked up) with D48V, D64A, I168D, L169D

T3: GST-CHMP3, wild type (human, UniProt Q9Y3E7 1-222)
T3 sequence (looked up): T1 sequence (looked up) with D48V, D64A

T4: GST-CHMP3 V48D, A64D (human, UniProt Q9Y3E7 1-222, V48D | A64D)
T4 sequence (looked up): T1 sequence (looked up)

T5: GST-CHMP3 I168D, L169D (human, UniProt Q9Y3E7 1-222, I168D | L169D)
T5 sequence (looked up): T1 sequence (looked up) with D48V, D64A, I168D, L169D

B1: GST-IST1NTD, wild type (domain or fragment, human, UniProt P53990 1-189, looked up)
chain: MLGSGFKAERLRVNLRLVINRLKLLEKKKTELAQKARKEIADYLAAGKDERARIRVEHIIREDYLVEAMEILELYCDLLLARFGLIQSMKELDSGLAESVSTLIWAAPRLQSEVAELKIVADQLCAKYSKEYGKLCRTNQIGTVNDRLMHKLSVEAPPKILVERYLIEIAKNYNVPYEPDSVVMAEAPP
B2: CHMP1B, pure recombinant (natural protein, human, UniProt Q7LBR1 1-199, looked up)
chain: MSNMEKHLFNLKFAAKELSRSAKKCDKEEKAEKAKIKKAIQKGNMEVARIHAENAIRQKNQAVNFLRMSARVDAVAARVQTAVTMGKVTKSMAGVVKSMDATLKTMNLEKISALMDKFEHQFETLDVQTQQMEDTMSSTTTLTTPQNQVDMLLQEMADEAGLDLNMELPQGQTGSVGTSVASAEQDELSQRLARLRDQV
B3: IST1NTD (N-terminal domain of IST1, residues 1-189) (domain or fragment, human, UniProt P53990 1-189, looked up)
chain: B1 chain
B4: CHMP2A, full length, pure recombinant (natural protein, human, UniProt O43633 1-222, looked up)
chain: MDLLFGRRKTPEELLRQNQRALNRAMRELDRERQKLETQEKKIIADIKKMAKQGQMDAVRIMAKDLVRTRRYVRKFVLMRANIQAVSLKIQTLKSNNSMAQAMKGVTKAMGTMNRQLKLPQIQKIMMEFERQAEIMDMKEEMMNDAIDDAMGDEEDEEESDAVVSQVLDELGLSLTDELSNLPSTGGSLSVAAGGKKAEAAASALADADADLEERLKNLRRD
B5: GST-CHMP3_(1-150) (domain or fragment, human, UniProt Q9Y3E7 1-150, looked up)
chain: MGLFGKTQEKPPKELVNEWSLKIRKEMRVVDRQIRDIQREEEKVKRSVKDAAKKGQKDVCIVLAKEMIRSRKAVSKLYASKAHMNSVLMGMKNQLAVLRVAGSLQKSTEVMKAMQSLVKIPEIQATMRELSKEMMKAGIIEEMLEDTFES
B6: CHMP3_(1-150) (domain or fragment, human, UniProt Q9Y3E7 1-150, looked up)
chain: B5 chain

Legend:
[1] = target: B2; assay: SPR
[2] = target: the molecule itself; assay: negative-stain transmission electron microscopy
[3] = target: GST-IST1NTD E67A (human, UniProt P53990 1-189, E67A); assay: SPR
[4] = target: GST-IST1NTD Y64D (human, UniProt P53990 1-189, Y64D); assay: SPR
[5] = target: GST-IST1NTD Y165A (human, UniProt P53990 1-189, Y165A); assay: SPR
[6] = target: GST-IST1NTD E168R (human, UniProt P53990 1-189, E168R); assay: SPR
[7] = target: the molecule itself; assay: light scattering at 330 nm + negative-stain transmission electron microscopy
[8] = target: T1, CHMP3 V48D, A64D; assay: negative-stain transmission electron microscopy
[9] = target: T2, CHMP3 I168D, L169D; assay: negative-stain transmission electron microscopy
[10] = target: T3, GST-CHMP3, wild type; assay: pull-down
[11] = target: T4, GST-CHMP3 V48D, A64D; assay: pull-down
[12] = target: T5, GST-CHMP3 I168D, L169D; assay: pull-down
[13] = target: B4; assay: pull-down
[14] = target: B4; assay: negative-stain transmission electron microscopy

B1
Kd [1]: 22 µM

B2
binding result [2]: binds | fold reduction of binding affinity against wild type IST1NTD [3]: 6 fold | fold reduction of binding affinity against wild type IST1NTD [4]: > 8 fold | fold reduction of binding affinity against wild type IST1NTD [5]: > 8 fold | fold reduction of binding affinity against wild type IST1NTD [6]: > 8 fold

B3
binding result [7]: binds

B4
binding result [8]: binds | binding result [9]: binds | binding result [10]: binds | binding result [11]: binds | binding result [12]: binds

B5
binding result [13]: binds

B6
binding result [14]: binds
